Target: tight-coupled 70S ribosome from Thermus thermophilus (Thermus thermophilus)
Assay: co-sedimentation

occupancy of EF-G in the complexes: 60 to 70%
Substance: elongation factor G (EF-G), Thermus thermophilus HB8 (from UniProt Q5SHN5 1-691) (enzyme)

Reference: PMC3272701
